Measured values from patent publication US20200024330A1.

Columns and labels:
Assay in all cases: cell-based or functional assay
[1] = target: HIV-1 JR-CSF Env Q422A (HIV-1 (isolate JR-CSF)) (UniProt P20871)
[2] = target: HIV-1 JR-CSF Env N355A (HIV-1 isolate JR-CSF) (UniProt P20871)
[3] = target: HIV-1 Env of isolate MGRM-A-002 (HIV-1)
[4] = target: Env of the clade C HIV-1 pseudoviruses of the cross-clade 162-pseudovirus panel (n = 27)
[5] = target: HIV-1 JR-CSF Env F210A (HIV-1 JR-CSF) (UniProt P20871)
[6] = target: HIV-1 Env of isolate MGRM-AE-003 (HIV-1)
[7] = target: HIV-1 Env of isolate 92TH021 (HIV-1)
[8] = target: HIV-1 JR-CSF Env I309A (HIV-1 JR-CSF) (UniProt P20871)
[9] = target: HIV-1 JR-CSF Env I326A (HIV-1 isolate JR-CSF) (UniProt P20871)
[10] = target: HIV-1 JR-CSF Env N302A (HIV-1 JR-CSF) (UniProt P20871)
[11] = target: HIV-1 JR-CSF Env N301A (HIV-1 JR-CSF) (UniProt P20871)
[12] = target: HIV-1 JR-CSF Env N332A (HIV-1 isolate JR-CSF) (UniProt P20871)
[13] = target: HIV-1 JR-CSF Env N396A (HIV-1 (isolate JR-CSF)) (UniProt P20871)
[14] = target: HIV-1 JR-CSF Env T394A (HIV-1 (isolate JR-CSF)) (UniProt P20871)
[15] = target: HIV-1 JR-CSF Env P299A (HIV-1 JR-CSF) (UniProt P20871)
[16] = target: HIV-1 Env of isolate CMU02 (HIV-1)
[17] = target: Env of all HIV-1 pseudoviruses of the cross-clade 162-pseudovirus panel (n = 162)
[18] = target: HIV-1 JR-CSF Env D417A (HIV-1 (isolate JR-CSF)) (UniProt P20871)
[19] = target: HIV-1 JR-CSF Env N241A (HIV-1 JR-CSF) (UniProt P20871)
[20] = target: HIV-1 JR-CSF Env N392Q (HIV-1 (isolate JR-CSF)) (UniProt P20871)
[21] = target: HIV-1 Env of isolate JR-CSF (HIV-1) (UniProt P20871)
[22] = target: Env of the clade G HIV-1 pseudoviruses of the cross-clade 162-pseudovirus panel (n = 15)
[23] = target: HIV-1 Env of isolate MGRM-A-005 (HIV-1)
[24] = target: HIV-1 JR-CSF Env F317A (HIV-1 isolate JR-CSF) (UniProt P20871)
[25] = target: HIV-1 JR-CSF Env K421A (HIV-1 (isolate JR-CSF)) (UniProt P20871)
[26] = target: HIV-1 JR-CSF Env K343A (HIV-1 isolate JR-CSF) (UniProt P20871)
[27] = target: HIV-1 JR-CSF Env S393A (HIV-1 (isolate JR-CSF)) (UniProt P20871)
[28] = target: HIV-1 JR-CSF Env N386A (HIV-1 isolate JR-CSF) (UniProt P20871)
[29] = target: HIV-1 JR-CSF Env K305A (HIV-1 JR-CSF) (UniProt P20871)
[30] = target: HIV-1 JR-CSF Env I420A (HIV-1 (isolate JR-CSF)) (UniProt P20871)
[31] = target: HIV-1 JR-CSF Env R304A (HIV-1 JR-CSF) (UniProt P20871)
[32] = target: HIV-1 JR-CSF Env W395A (HIV-1 (isolate JR-CSF)) (UniProt P20871)
[33] = target: HIV-1 Env of isolate MGRM-A-011 (HIV-1)
[34] = target: HIV-1 JR-CSF Env N276A (HIV-1 JR-CSF) (UniProt P20871)
[35] = target: HIV-1 JR-CSF Env R350A (HIV-1 isolate JR-CSF) (UniProt P20871)
[36] = target: HIV-1 JR-CSF Env T341A (HIV-1 isolate JR-CSF) (UniProt P20871)
[37] = target: HIV-1 94UG103 envelope glycoprotein (Env) (HIV-1)
[38] = target: HIV-1 JR-CSF Env G324A (HIV-1 isolate JR-CSF) (UniProt P20871)
[39] = target: HIV-1 MGRM-C-027 envelope glycoprotein (Env) (HIV-1)
[40] = target: HIV-1 JRFL envelope glycoprotein (Env) (HIV-1)
[41] = target: HIV-1 MGRM-C-028 envelope glycoprotein (Env) (HIV-1)

B1: PGT-127 (antibody, V domains shown)
VH: QPQLQESGPGLVEASETLSLTCTVSGDSTGRCNYFWGWVRQPPGKGLEWIGSLSHCRSYYNTDWTYHNPSLKSRLTISLDTPKNQVFLRLTSVTAADTATYYCARFGGEVLVYRDWPKPAWVDLWGRGTLVVTVS
VL: QSALTQPPSASGSPGQSITISCTGTSNNFVSWYQQYPGKAPKLVIYEVNKRPSGVPDRFSGSKSGSTASLTVSGLQADDEGVYYCSSLVGNWDVIFGGGTKLTVL
**Q.** Which results are given for B1?
**A.** Fold IC50 increase relative to wild-type [1]: 0.1 fold; Fold IC50 increase relative to wild-type [2]: 1.4 fold; IC50 (µg/mL), pseudovirus neutralization [3]: 9.42 µg/mL; Median IC50 against viruses neutralized with an IC50 <50 µg/ml [4]: 0.55 mg/L; Fold IC50 increase relative to wild-type [5]: 0.8 fold; IC50 (µg/mL), pseudovirus neutralization [6]: > 50 µg/mL; IC50 (µg/mL), pseudovirus neutralization [7]: > 50 µg/mL; Polyclonal Transfectant Neutralization Index (well 5145 B14) [7]: 0.94; Primary Neutralization Index (B cell culture well 5145 B14) [7]: 1; Fold IC50 increase relative to wild-type [8]: 6 fold; Fold IC50 increase relative to wild-type [9]: 3.5 fold; Fold IC50 increase relative to wild-type [10]: 3 fold; Fold IC50 increase relative to wild-type [11]: > 250 fold; Fold IC50 increase relative to wild-type [12]: > 100 fold; Fold IC50 increase relative to wild-type [13]: 2.4 fold; Fold IC50 increase relative to wild-type [14]: 1.6 fold; Fold IC50 increase relative to wild-type [15]: 0.2 fold; IC50 (µg/mL), pseudovirus neutralization [16]: > 50 µg/mL; Median IC50 against viruses neutralized with an IC50 <50 µg/ml [17]: 0.08 mg/L; Fold IC50 increase relative to wild-type [18]: 0.4 fold; Fold IC50 increase relative to wild-type [19]: 0.6 fold; Fold IC50 increase relative to wild-type [20]: 1.1 fold; Polyclonal Transfectant Neutralization Index (well 5145 B14) [21]: 1.61; Primary Neutralization Index (B cell culture well 5145 B14) [21]: 31.1; Median IC50 against viruses neutralized with an IC50 <50 µg/ml [22]: 0.22 mg/L; IC50 (µg/mL), pseudovirus neutralization [23]: > 50 µg/mL; Fold IC50 increase relative to wild-type [24]: 0.2 fold; Fold IC50 increase relative to wild-type [25]: 1.5 fold; Fold IC50 increase relative to wild-type [26]: 1 fold; Fold IC50 increase relative to wild-type [27]: 1.2 fold; Fold IC50 increase relative to wild-type [28]: 0.6 fold; Fold IC50 increase relative to wild-type [29]: 2.6 fold; Fold IC50 increase relative to wild-type [30]: 1.8 fold; Fold IC50 increase relative to wild-type [31]: 0.4 fold; Fold IC50 increase relative to wild-type [32]: 1.6 fold; IC50 (µg/mL), pseudovirus neutralization [33]: > 50 µg/mL; Fold IC50 increase relative to wild-type [34]: 1.6 fold; Fold IC50 increase relative to wild-type [35]: 1.1 fold; Fold IC50 increase relative to wild-type [36]: 1.7 fold

B2: PGT-130 (antibody, V domains shown)
VH: QVQLQESGPGLVKPAETLSLTCSVSGESINTGHYYWGWVRQVPGKGLEWIGHIHYTTAVLHNPSLKSRLTIKIYTLRNQITLRLSNVTAADTAVYHCVRSGGDILYYYEWQKPHWFSPWGPGIHVTVSS
VL: QSALTQPPSASGSLGQSVTISCNGTSSDIGGWNFVSWYQQFPGRAPRLIIFEVNKRPSGVPGRFSGSKSGNSASLTVSGLQSDDEGQYFCSSLFGRWDVVFGGGTKLTVL
**Q.** Which results are given for B2?
**A.** Fold IC50 increase relative to wild-type [1]: 1 fold; Fold IC50 increase relative to wild-type [2]: 1.3 fold; Median IC50 against viruses neutralized with an IC50 <50 µg/ml [4]: 0.15 mg/L; Fold IC50 increase relative to wild-type [5]: 1.7 fold; Polyclonal Transfectant Neutralization Index (well 5147 N6) [7]: 4.2; Primary Neutralization Index (B cell culture well 5147 N6) [7]: 538; Fold IC50 increase relative to wild-type [8]: > 77.9 fold; IC50 neutralization [37]: 0.635 mg/L; Fold IC50 increase relative to wild-type [9]: 1.3 fold; Fold IC50 increase relative to wild-type [10]: 1.1 fold; Fold IC50 increase relative to wild-type [11]: > 1000 fold; Fold IC50 increase relative to wild-type [12]: 0.6 fold; Fold IC50 increase relative to wild-type [13]: 1 fold; Fold IC50 increase relative to wild-type [14]: 1.2 fold; Fold IC50 increase relative to wild-type [15]: 0.8 fold; Median IC50 against viruses neutralized with an IC50 <50 µg/ml [17]: 0.18 mg/L; Fold IC50 increase relative to wild-type [18]: 1 fold; Fold IC50 increase relative to wild-type [19]: 0.6 fold; Fold IC50 increase relative to wild-type [20]: 1.2 fold; Polyclonal Transfectant Neutralization Index (well 5147 N6) [21]: 1.24; Primary Neutralization Index (B cell culture well 5147 N6) [21]: 19.3; Median IC50 against viruses neutralized with an IC50 <50 µg/ml [22]: 4.14 mg/L; Fold IC50 increase relative to wild-type [38]: > 50 fold; Fold IC50 increase relative to wild-type [24]: 17 fold; Fold IC50 increase relative to wild-type [25]: 2.9 fold; Fold IC50 increase relative to wild-type [26]: 1.1 fold; IC50 neutralization [39]: 0.0052 mg/L; Fold IC50 increase relative to wild-type [27]: 0.7 fold; Fold IC50 increase relative to wild-type [28]: 0.1 fold; IC50 neutralization [40]: 0.0346 mg/L; Fold IC50 increase relative to wild-type [29]: 6.9 fold; Fold IC50 increase relative to wild-type [30]: 9.8 fold; Fold IC50 increase relative to wild-type [31]: 2.5 fold; Fold IC50 increase relative to wild-type [32]: 0.6 fold; Fold IC50 increase relative to wild-type [34]: 1 fold; Fold IC50 increase relative to wild-type [35]: 0.5 fold; IC50 neutralization [41]: > 10 mg/L; Fold IC50 increase relative to wild-type [36]: 0.8 fold

B3: PGT-123 (antibody, V domains shown)
VH: QLHLQESGPGLVKPPETLSLTCSVSGASINDAYWSWIRQSPGKRPEWVGYVHHSGDTNYNPSLKRRVTFSLDTAKNEVSLKLVDLTAADSATYFCARALHGKRIYGIVALGELFTYFYMDVWGKGTAVTVSS
VL: SSMSVSPGETAKISCGKESIGSRAVQWYQQKPGQPPSLIIYNNQDRPAGVPERFSASPDFRPGTTATLTITNVDAEDEADYYCHIYDARGGTNWVFDRGTTLTVL
**Q.** Which results are given for B3?
**A.** Fold IC50 increase relative to wild-type [1]: 0.8 fold; Fold IC50 increase relative to wild-type [2]: 0.5 fold; IC50 (µg/mL), pseudovirus neutralization [3]: 0.011 µg/mL; Median IC50 against viruses neutralized with an IC50 <50 µg/ml [4]: 0.01 mg/L; Fold IC50 increase relative to wild-type [5]: 2.8 fold; IC50 (µg/mL), pseudovirus neutralization [6]: > 50 µg/mL; IC50 (µg/mL), pseudovirus neutralization [7]: > 50 µg/mL; Fold IC50 increase relative to wild-type [8]: 1.6 fold; IC50 neutralization [37]: 0.846 mg/L; Fold IC50 increase relative to wild-type [9]: 0.4 fold; Fold IC50 increase relative to wild-type [10]: 1.3 fold; Fold IC50 increase relative to wild-type [11]: 1 fold; Fold IC50 increase relative to wild-type [12]: > 200 fold; Fold IC50 increase relative to wild-type [13]: 1.2 fold; Fold IC50 increase relative to wild-type [14]: 0.4 fold; Fold IC50 increase relative to wild-type [15]: 0.7 fold; IC50 (µg/mL), pseudovirus neutralization [16]: > 50 µg/mL; Median IC50 against viruses neutralized with an IC50 <50 µg/ml [17]: 0.03 mg/L; Fold IC50 increase relative to wild-type [18]: 0.7 fold; Fold IC50 increase relative to wild-type [19]: 0.8 fold; Fold IC50 increase relative to wild-type [20]: 1 fold; Primary Neutralization Index (B cell culture well 4858 P8) [21]: 1.6; Median IC50 against viruses neutralized with an IC50 <50 µg/ml [22]: 0.04 mg/L; Fold IC50 increase relative to wild-type [38]: 14.5 fold; IC50 (µg/mL), pseudovirus neutralization [23]: > 50 µg/mL; Fold IC50 increase relative to wild-type [24]: 3.1 fold; Fold IC50 increase relative to wild-type [25]: 0.9 fold; Fold IC50 increase relative to wild-type [26]: 0.3 fold; IC50 neutralization [39]: 0.0169 mg/L; Fold IC50 increase relative to wild-type [27]: 0.6 fold; Fold IC50 increase relative to wild-type [28]: 1.4 fold; IC50 neutralization [40]: 0.0283 mg/L; Fold IC50 increase relative to wild-type [29]: 1.9 fold; Fold IC50 increase relative to wild-type [30]: 3.2 fold; Fold IC50 increase relative to wild-type [31]: 0.7 fold; Fold IC50 increase relative to wild-type [32]: 0.4 fold; IC50 (µg/mL), pseudovirus neutralization [33]: > 50 µg/mL; Fold IC50 increase relative to wild-type [34]: 1.1 fold; Fold IC50 increase relative to wild-type [35]: 0.5 fold; IC50 neutralization [41]: 0.443 mg/L; Fold IC50 increase relative to wild-type [36]: 0.3 fold
